Assay results published in US20230285394A1, “METHODS OF TREATMENT OF NON-SMALL-CELL LUNG CARCINOMA USING TELISOTUZUMMAB VEDOTIN AND OSIMERTINIB” (AbbVie Biotherapeutics Inc., priority 2022, published 2023).

Legend:
[1] = tested on: c-Met positive (≥25% 3+ IHC staining) advanced non-squamous NSCLC, EGFR mutant; assay: Phase 2 study (NCT03539536) of Teliso-V monotherapy, objective response rate; assay type: in vivo, human; settings: Teliso-V monotherapy 1.9 mg/kg
c-Met expressing NSCLC = assay: First in human phase I trial of Teliso-V monotherapy (NCT02099058), best overall response by c-Met IHC cutoff; assay type: in vivo
From the text: (§1) The clinical modeling data was obtained from the Teliso-V monotherapy trial NCT02099058. Abbreviations shown in FIG. 5 and determination of the values in the table are as follow: PPA (positive percent agreement): #oV positive uV positive/Total uV positive; NPA (Negative percent agreement): #oV negative uV negative/Total uV negative; OPA (Overall percent agreement): #oV positive uV positive+#oV negative uV negative/Total number of samples tested; PPV (Positive predictive value): #of oV positive uV positive/total #of oV positive; NPV (Negative predictive value): #of oV negative uV negative/Total oV negative. % BOR represents the percent best overall response.
as §1, with “FIG. 6” for “FIG. 5”
An analytical method comparison between SP44 Ultraview and SP44 OptiView on a large cohort of commercial NSCLC tissues was performed (FIG. 4). […] The overall percent agreement at this cutoff between the two assays was 93%. The first in human phase I clinical trial for Teliso-V monotherapy in NSCLC enrolled patients with an H-score of 150 using the SP44 UltraView assay. Upon re-scoring of the slides, the optimal cutoff utilizing the SP44 Ultraview IHC assay was ≥25% 3+ with a best overall response of 56%. The best overall response for the OptiView IHC assay at the same cutoff, ≥25% 3+, utilizing the phase I data through statistical modeling was 52% (FIG. 5).
The first in human phase I clinical trial for Teliso-V monotherapy in NSCLC enrolled patients with an H-score of 150 using the SP44 UltraView assay. […] The best overall response for the OptiView IHC assay at the same cutoff, ≥50% 3+, utilizing the phase I data through statistical modeling was 63% (FIG. 6).

B1: telisotuzumab vedotin (conjugate, chains of the INN, looked up)
VH: QVQLVQSGAEVKKPGASVKVSCKASGYIFTAYTMHWVRQAPGQGLEWMGWIKPNNGLANYAQKFQGRVTMTRDTSISTAYMELSRLRSDDTAVYYCARSEITTEFDYWGQGTLVTVSS
VL: DIVMTQSPDSLAVSLGERATINCKSSESVDSYANSFLHWYQQKPGQPPKLLIYRASTRESGVPDRFSGSGSGTDFTLTISSLQAEDVAVYYCQQSKEDPLTFGGGTKVEIK
modifications: vc-MMAE payload
notes: ADC of the c-Met targeting antibody ABT-700 conjugated to monomethyl auristatin E (MMAE) through a valine citrulline linker
ORR (CR + PR) ([1]; non-squamous NSCLC EGFR mutant patients, c-Met ≥25% 3+, interim analysis): 11.6%
ORR (CR + PR) ([1]; subset of EGFR mutant subjects previously treated with osimertinib): 0%
ORR (CR + PR) ([1]; subset of EGFR mutant subjects previously treated with osimertinib, listed as Teliso V): 0%
best overall response (c-Met expressing NSCLC; patients at ≥25% 3+ cutoff, OptiView IHC assay, phase I data through statistical modeling): 52%
best overall response (c-Met expressing NSCLC; patients at ≥25% 3+ cutoff, SP44 Ultraview IHC assay, re-scored slides): 56%
best overall response (c-Met expressing NSCLC; patients at ≥50% 3+ cutoff, OptiView IHC assay, phase I data through statistical modeling): 63%
best overall response (c-Met expressing NSCLC; patients at ≥50% 3+ membrane staining cutoff, SP44 Ultraview IHC assay, re-scored slides): 67%
